Measured values as given in the nanobody polyreactivity screen of Harvey et al. (2022).

Assay: yeast display, Sf9 membrane polyspecificity reagent, FACS + sequencing; frameworks hold sequencing errors
How it was run: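 A nanobody's polyreactivity label depends on the gate it was sorted from. Yeast display cells were stained with 10% biotinylated, detergent-solubilized Sf9 membrane reagent for 1 hour at 4 °C, enriched on streptavidin microbeads and sorted by FACS. The low and high (top ~1%) gates were set on anti-HA fluorescence for expression and streptavidin fluorescence for reagent binding.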

Row | Sequence | polyreactivity (PSR sort gate)
1 | QVQLVESGGGLVQAGGSLRLSCAASGSIFGQNAMGWYRQAPGKEMELVAAIRVSGGSTYYADSVKGRFTNSRDNAKNTVYLQKNSLKPEDTAVYYCNARYRGYYGPKTHGVTYYYWGQGTQVTVSS | low polyreactivity
2 | QVQLVESGGGLVQAGGSLRLSCAASGSIFGQNAMGWYRQAPGKERELVAAITTSRGSTYYADSVKGRFTISRDNPKNTVDFQMNSLNPEDTAVYYCAARYVTPGYIIYVYWGQGTQVTVSS | high polyreactivity
3 | QVQLVESGGGLVQAGGSLRLSCAASGSIFGQYAMGRYRQAPGKERDLVAAIDWSSASTYYADSVKGRVTISRDNAKNTVYLQMNSLKPEDTAVYDCNAVGKYYRYDYWGQGTQVTVSS | high polyreactivity
4 | QVQLVESGGGLVQAGGSLRLSCAASGSIFGRNAMGWYRQAPGKERELVADIWNGGSTYYADSVKGRFTISRDNAKNTVYLQMNCLKPEDTAVYYCNADANDDGRFGGYIKYDYWGQGTQVTVSS | low polyreactivity
5 | QVQLVESGGGLVQAGGSLRLSCAASGSIFGRNAMGWYRQAPGKERELVAGISWSGGSTYYADSVKGRFTISRDNAKNTVYLQMNSLKPEDTAVYYCAADYWTWSGFTYYNYEYWGQGTQVTVSS | high polyreactivity
6 | QVQLVESGGGLVQAGGSLRLSCAASGSIFGRNDMGWYRQAPGKERELVAAISGDTTTNYADSVKGRFTISRDNAKNTVYLQMNSLKPEDTAVYYCNRYSGGRWYPEYYYWGQGTQVTVSS | high polyreactivity
7 | QVQLVESGGGLVQAGGSLRLSCAASGSIFGRYAMGWYRQAPGKERELVAAISYSNARTYYADSVKGRFTISRDNAKNTVYLQMNSLKPEDTAVYYCAVLRRYLVGNLVGYNYWGQGTQVTVSS | high polyreactivity
8 | QVQLVESGGGLVQAGGSLRLSCAASGSIFGRYAMGWYRQAPGKERELVADISWSGGRTYYADSVKGRFTISRDNAKNTVYLQMNSLKPEDTAVYYCNKVYRWFTRFDYWGQGTQLTVSS | high polyreactivity
9 | QVQLVESGGGLVQAGGSLRLSCAASGSIFGRYAMGWYRQAPGKERELVASIYSSGSTYYADSVKGRFTISRDNAKNTVYLQMNSLKPEDTAVYYCAAQISVWGYRVGYTKYYYWGQGTQVTVSS | high polyreactivity
10 | QVQLVESGGGLVQAGGSLRLSCAASGSIFGRYGAMGWYRQAPGKERELVAAIRTSGVSTYYADSVKGRFTISRDNAKKNVYLQMNSLKPEDTAVYYCAKGYTSYNLGKYGYWGQGTQVTVSS | high polyreactivity
11 | QVQLVESGGGLVQAGGSLRLSCAASGSIFGRYPMGWYRQAPGKERELVAAISRRGGSTYYADSVKGRFTISRDNAKNTVYLQMNSLKPEDTAVYYCAARPFVKHDYWGQGTQVTVSS | high polyreactivity
12 | QVQLVESGGGLVQAGGSLRLSCAASGSIFGRYVMGWYRQAPGKERELVAAINWSGSRTYYADSVKGRFTISRDNAKNTVYLQMNSLKPEDTAVYYCAADWWSRYYYWGQGTQVTVSS | high polyreactivity
13 | QVQLVESGGGLVQAGGSLRLSCAASGSIFGRYVMGWYRQAPGKERELVAAITSVGITNYADSVKGRFTISRDNAKNTVYLQMNSLKPEDTAVYYCAKRYYRYGARSWYYPYDYWGQGTQVTVSS | high polyreactivity
14 | QVQLVESGGGLVQAGGSLRLSCAASGSIFGSNALGWSRQAPGKERELVAAITWSDGSTYYADSVKGRFTISRDNAKNTVYLQMNSLKPEDTAVYVRATDYGYSWYDYWGQGTQVTVSS | low polyreactivity
15 | QVQLVESGGGLVQAGGSLRLSCAASGSIFGSNTMGWYRQAPGKEREFVAAISFSGGSTYYADSVKGRFTISRDNAKNTVYLQMNSLKPEDTAVYYCAARQRRVGTSFYSSRRDYWGQGTQVTVSS | high polyreactivity
16 | QVQLVESGGGLVQAGGSLRLSCAASGSIFGSYAIGWYRHAPGKERELVAAIRYNSGSTYYADSVKGRFTISRDNAKNTVYLQMNSLKPEDTAVYYCAAYLLWGFDYWVQGTQVTVSS | high polyreactivity
17 | QVQLVESGGGLVQAGGSLRLSCAASGSIFGSYALGWYRQAPGKERELVAAISKSGGNTYYADSVKGRFTISRDNAKNTVYLQMNSLKPEDTAVYYCAARYRFLRPKVNYWGQGTQVTVSS | high polyreactivity
18 | QVQLVESGGGLVQAGGSLRLSCAASGSIFGSYAMGWYRPAPGKERELVAAITRAGSTNYADSVKGRFTISRDNAKNTVYLQMNSLKPEDTAVYYCAVRPGFGRSLWYGYWGQGTQVTVSS | low polyreactivity
19 | QVQLVESGGGLVQAGGSLRLSCAASGSIFGSYAMGWYRQAPGKERELVAAISRRGGSTYYADSVKGRFTISRDNAKNTVYLQMNSLKPEDTAVYYCAARWPTGRNGYWGQGTQVTVSS | high polyreactivity
20 | QVQLVESGGGLVQAGGSLRLSCAASGSIFGSYAMGWYRQAPGTERELVAAIDWSGVGTYYADSVKGRFTISRDNANNTVYLQMNSLKPEDTAVYYCAAGVLRRDTELYYWGQGTQVTVSS | low polyreactivity
21 | QVQLVESGGGLVQAGGSLRLSCAASGSIFGSYTMGWYRPAPGKERELVAAITSGGGNTYYADSVKGRFTISRDNAKNTVYLQMNSLKPEDTAVYYCAARERYTGYGSWGQGTQVTVSS | high polyreactivity
22 | QVQLVESGGGLVQAGGSLRLSCAASGSIFGTYAKGWYRQAPGKERELVAAISKRGSTTSYADSVKGRFTISRDNAKNTVYLQMNSLKPEDTAVYYCAALTRNSGGYGSWGQGTQVTVSS | high polyreactivity

Row | Sequence | polyreactivity (PSR sort gate)
23 | QVQLVESGGGLVQAGGSLRLSCAASGSIFGTYAMGWYRQAPGKEREFVAAISWSDGSTYYADSVKGRFTISRDNAKNTVYLQMNSLIPEDTAVYYCAVRRVGSIYIDRYIYVVADYDYWGQGTQVTVSS | low polyreactivity
24 | QVQLVESGGGLVQAGGSLRLSCAASGSIFGTYAMGWYRQAPGKERELVAAISRGGRTYYADSVKGRFTISRDNAKNTVYLQMNSLKPEDTAVYYCAARTVGLRGYYYWGQGTQVTVSS | high polyreactivity
25 | QVQLVESGGGLVQAGGSLRLSCAASGSIFGTYAMGWYRQAPGKERELVATISYGDGSTYYADSVKGRFTISRDNAKNTVYLQMNSLKPEDTAVYYCNTGVYSSGGPLDYWGQGTQVTVSS | low polyreactivity
26 | QVQLVESGGGLVQAGGSLRLSCAASGSIFGVNAMGWYRQAPGKERELVAAISSGGSTNYADSVKGRFTISRDNAKNTVYLQMNSLKPEDTAVSYCNTLWGHQYIGPYRTRECYYWGQGTQVTVSS | low polyreactivity
27 | QVQLVESGGGLVQAGGSLRLSCAASGSIFGVNAMGWYRQAPGKERELVASITGGDSTNYADSVKGRFTISRDNAKNTVYLQMNSLKPEDSAVYYCAKDHYYRYEEGDYWGQGTQVTVSS | low polyreactivity
28 | QVQLVESGGGLVQAGGSLRLSCAASGSIFGVNAMGWYRQAPGKERELVASITGGDSTNYADSVKGRFTISRDNAKNTVYLQMNSLKPEDTAVYYCAKDHYYRYEEGDYWGQGTQVTVSS | low polyreactivity
29 | QVQLVESGGGLVQAGGSLRLSCAASGSIFGVNAMGWYRQAPGKERELVATISASGGSTYYADSVKGRFTISRDNAKNTVYLQMNSLKPEDTAVYYCATVVSPSPEMDYWGQGTQVTVSS | low polyreactivity
30 | QVQLVESGGGLVQAGGSLRLSCAASGSIFGVYAMGWYIPAPGTERELVAAISRGGSTNDADSVKGRFTISRDNEKNTVYLQMNSLKPEDTAVYYCNAVPVLGGYGYQWGYDYWGQGTKVTVSS | low polyreactivity
31 | QVQLVESGGGLVQAGGSLRLSCAASGSIFGWNAMGWYRQAPGKERELVAAITRRGDSTYYADSVKGRFTISRDNAKNTVYLQMNSLKPEDTAVYYCAKRGTGVYRVDYGYWGQGTQVTVSS | high polyreactivity
32 | QVQLVESGGGLVQAGGSLRLSCAASGSIFGWYAMGGYRQAPGKESELVASISVTAGSTYYADSVKWRFTMSRDYAKNTVYLQMNSLKPEDTAVYYCAADDYTADAVQRFYYWGQGTQVTVSS | low polyreactivity
33 | QVQLVESGGGLVQAGGSLRLSCAASGSIFGWYAMGWYRQAPGKEREFVATISRRGGRTYYADSVKGRFTISRDNAKNTVYLQMNSLKPEDTAVYYCAANSVYKEDYWGQGTQVTVSS | high polyreactivity
34 | QVQLVESGGGLVQAGGSLRLSCAASGSIFGWYAMGWYRQAPGKERELVAAIDSATSTYYADSVKGRFTISRDNAKNTVYLQKNSLKPEDTAVYYCAVYSWWIDAEYDYWGQGSQVTVSS | low polyreactivity
35 | QVQLVESGGGLVQAGGSLRLSCAASGSIFGWYAMGWYRQAPGKERELVAGISWSGANTYYADSVKGRFTISRDNAKNTVYLQMNSLKPEDTAVYYCAAGPGLYYSRRYGYWGQGTQVTVSS | high polyreactivity
36 | QVQLVESGGGLVQAGGSLRLSCAASGSIFGWYAMGWYRQAPGKERELVATISSGGGNTYYADAVKGRFTISRDNAKNTVYLQMNSLKPEDTAVYYCNASPGPDSRLAEFDYWGQGTQVTVSS | low polyreactivity
37 | QVQLVESGGGLVQAGGSLRLSCAASGSIFGWYVMGWYRQAPGKERELVAAISSVGSTYYADSVKGRFTISRDNAKNTVYLQMNSLKPEDTAVYYCAKLRYPYLFWDDSEYWGQCTQVTVSS | low polyreactivity
38 | QVQLVESGGGLVQAGGSLRLSCAASGSIFGYNAKGWYRQAPGKERELVAAINYRGGSTYYADSVKGRFTISRDNAKNTVYLQMNSLKPEDTAVYYCAARYWKDGSTYDYWGQGTQVTVSS | high polyreactivity
39 | QVQLVESGGGLVQAGGSLRLSCAASGSIFGYNAMGWYRQAPGKEREFVAAISWSGGRTYYADSVKGRFTISRDNAKYTVYLQMNSLKPEDTAVYYCAAPSRPAPRFDYWGQGTQVTVSS | low polyreactivity
40 | QVQLVESGGGLVQAGGSLRLSCAASGSIFGYNAMGWYRQAPGKEREFVAAITSGGSTYYADSVKGRFTISRDNAKNTVYLQMNSLKPEDTAVYYCRRRNVYSTRRYDYWGQGTQVTVSS | high polyreactivity
41 | QVQLVESGGGLVQAGGSLRLSCAASGSIFGYNAMGWYRQAPGKEREFVASIRYRGGSTYYADSVKGRFTISRDNAKNTVYLQMNSLKPEDTAVYYSAAYWWGVSKRQYGYWGQGTQVTVSS | high polyreactivity
42 | QVQLVESGGGLVQAGGSLRLSCAASGSIFGYNAMGWYRQAPGKERELVATISSGGSTNYADSVKGRFTISRDNAKNTVYLQMNSLKPEDTAVYYCAKEYGSIIPYDYWGQGTQVTVSS | low polyreactivity
43 | QVQLVESGGGLVQAGGSLRLSCAASGSIFGYNDMGCYRQAPGKEREMVAAITTSGDSTYYADSVKGRFTISRDNAKNTVYLQMNSLKPEDTAVYYCNADGEVVDWYHPYYVEYDYWGQGTQVTVSS | low polyreactivity
